Laboratory results taken from patent publication US20030186915A1, “Regulatory polynucleotides and uses thereof” (priority 2002, published 2003).

B1: Cbfa1: transcription factor; gene recovered from an SAOS cDNA library, overexpressed from a mammalian expression vector (protein)
chain: MASNSLFSTVTPCQQNFFWDPSTSRRFSPPSSSLQPGKMSDVSPVVAAQQQQQQQQQQQQQQQQQQQQQQQEAAAAAAAAAAAAAAAAAVPRLRPPHDNRTMVEIIADHPAELVRTDSPNFLCSVLPSHWRCNKTLPVAFKVVALGEVPDGTVVTVMAGNDENYSAELRNASAVMKNQVARFNDLRFVGRSGRGKSFTLTITVFTNPPQVATYHRAIKVTVDGPREPRRHRQKLDDSKPSLFSDRLSDLGRIPHPSMRVGVPPQNPRPSLNSAPSPFNPQGQSQITDPRQAQSSPPWSYDQSYPSYLSQMTSPSIHSTTPLSSTRGTGLPAITDVPRRISDDDTATSDFCLWPSTLSKKSQAGASELGPFSDPRQFPSISSLTESRFSNPRMHYPATFTYTPPVTSGMSLGMSATTHYHTYLPPPYPGSSQSQSGPFQTSSTPYLYYGTSSGSYQFPMVPGGDRSPSRMLPPCTTTSNGSTLLNPNLPNQNDGVDADGSHSSSPTVLNSSGRMDESVWRPY
B2: MyoD: transcription factor overexpressed from an expression plasmid (150 ng) (protein, UniProt P15172 1-320, looked up)
Myoblast determination …: MELLSPPLRDVDLTAPDGSLCSFATTDDFYDDPCFDSPDLRFFEDLDPRLMHVGALLKPEEHSHFPAAVHPAPGAREDEHVRAPSGHHQAGRCLLWACKACKRKTTNADRRKAATMRERRRLSKVNEAFETLKRCTSSNPNQRLPKVEILRNAIRYIEGLQALLRDQDAAPPGAAAAFYAPGPLPPGRGGEHYSGDSDASSPRSNCSDGMMDYSGPPSGARRRNCYEGAYYNEAPSEPRPGKSAAVSSLDCLSSIVERISTESPAAPALLLADVPSESPPRRQEAAAPSEGESSGDPTQSPDAAPQCPAGANPNPIYQVL
B3: EcoRV to BglII fragment: about 142 nucleotides, nucleotides 1673 to 1814 of SEQ ID NO: 1, in luciferase reporter construct (nucleic acid, listed as Homo sapiens)
DNA: ATCTGAAAACCACAGCCGCCAGCACGTGGGAGGTGCCGGAGAGCAGGCTTGGGCCTTGCCTCACACGCCCCCTCTCTCTGGGTCACCTGGGAGTGCCAGCAGCAATTTGGAAGTTTGCTGAGCTAGAGGAGAAGTCTTTGGG
modifications: in luciferase reporter construct

Tests used:
[1] = system: SOST regulatory region; assay: Transactivation of SOST reporter constructs by co-transfected expression plasmids in SAOS cells; assay type: cell-based, human; conditions: factor overexpressed, 48 hrs after transfection
Protocol: To determine whether transfected Cbfa1 could drive further increases in the transcriptional activity of the SOST promoter, the Cbfa1 gene was recovered from an SAOS cDNA library and inserted it into a mammalian expression vector.
To test the effects of the two proteins Cbaf1 and MyoD on transactivitation of the 1.8 kb SOST regulatory region, the following tests were performed. SAOS cells were transfected with 500 ng of either the EcoRV fragment (nucleotides 1673 to 1814 of SEQ ID NO: 1) or 1.8 kb SOST regulatory region (nucleotides 1 to 1841 of SEQ ID NO:1) and the indicated combinations of expression plasmids for MyoD (150 ng) or Cbfa1 (30 ng, 300 ng). pBluescript (Stratagene) was used as needed to bring the DNA total to 1 μg per well, and SEAP (20 ng) was used to normalize for transfection efficiency. Cells were harvested 48 hrs after transfection. Both the SOST-luc and the EcoRV fragment were activated by Cbaf1 and MyoD.

[2] = system: SAOS cells; assay: Luciferase reporter assay of SOST regulatory region constructs, transient transfection; assay type: cell-based, human; conditions: deletion constructs in pGL2-Basic

Molecule | activity of the 1.8 kb SOST regulatory region reporter (SOST-luc) [1] | activity of the EcoRV fragment reporter [1] | activity of the 1.8 kb SOST regulatory region reporter (SOST-luc) ([1]; listed as Cbaf1) | activity of the EcoRV fragment reporter ([1]; listed as Cbaf1) | increase in luciferase activity over the 1.8 kb SOST regulatory region [2]
B1 | increased activity | increased activity | activated | activated | 
B2 | activated | activated |  |  | 
B3 |  |  |  |  | almost three fold
